From paper doi:10.1101/2024.09.27.615443 (bioRxiv, 2024)

Molecular target: recombinant TGF-β1/GARP (Homo sapiens, UniProt P01137;Q14392)
Experiment: ELISA

Sequence of recombinant TGF-β1/GARP (P01137 30-390, chain 1 of 2): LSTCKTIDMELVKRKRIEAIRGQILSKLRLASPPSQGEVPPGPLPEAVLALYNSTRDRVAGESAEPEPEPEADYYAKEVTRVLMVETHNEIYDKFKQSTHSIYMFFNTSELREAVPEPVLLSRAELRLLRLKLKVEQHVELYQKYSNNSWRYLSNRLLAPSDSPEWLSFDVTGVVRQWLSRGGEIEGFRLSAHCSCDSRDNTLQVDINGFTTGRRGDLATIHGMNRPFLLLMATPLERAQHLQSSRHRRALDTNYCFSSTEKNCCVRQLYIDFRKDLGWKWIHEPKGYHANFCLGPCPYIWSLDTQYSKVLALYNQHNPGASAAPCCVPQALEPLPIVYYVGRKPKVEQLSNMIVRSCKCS
Sequence of recombinant TGF-β1/GARP (Q14392 20-662, chain 2 of 2): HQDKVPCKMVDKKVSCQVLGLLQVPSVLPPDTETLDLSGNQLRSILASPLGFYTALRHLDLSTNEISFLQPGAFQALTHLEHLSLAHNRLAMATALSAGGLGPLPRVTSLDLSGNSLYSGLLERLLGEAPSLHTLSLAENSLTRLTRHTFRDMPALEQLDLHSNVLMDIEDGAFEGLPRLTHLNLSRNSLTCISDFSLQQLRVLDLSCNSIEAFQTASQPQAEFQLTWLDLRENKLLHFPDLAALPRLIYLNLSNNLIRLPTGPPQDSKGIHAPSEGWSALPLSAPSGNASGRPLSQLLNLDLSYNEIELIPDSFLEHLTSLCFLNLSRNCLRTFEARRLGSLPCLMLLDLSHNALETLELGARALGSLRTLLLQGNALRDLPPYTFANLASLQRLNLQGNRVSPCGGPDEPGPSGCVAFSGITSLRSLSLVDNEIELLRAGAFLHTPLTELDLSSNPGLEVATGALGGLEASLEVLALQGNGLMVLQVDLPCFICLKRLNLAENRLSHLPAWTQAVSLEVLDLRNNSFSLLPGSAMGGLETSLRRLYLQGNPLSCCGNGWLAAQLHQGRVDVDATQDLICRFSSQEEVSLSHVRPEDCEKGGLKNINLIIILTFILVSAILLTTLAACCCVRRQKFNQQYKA

binding result: binds
B1: monoclonal antibody clone 28G11 (antibody, V domains shown)
VH: EVKLVESGGGLVQPGGSLSLSCAASGFTFTDYYMSWVRQPPGKALEWLGFIRNKPNGYTTEYSASVKGRFTISRDNSQSILYLQMNVLRAEDSATYYCARYTGGGYFDYWGQGTTLTVSS
VL: DIQMTQTTSSLSASLGDRLTISCRASQDISNYLNWYQQKPDGTVKLLIYYTSRLHSGVPSRFSGSGSGTDYSLTISNLEQADIATYFCQQGDTLPWTFGGGTKLEIK
